T1: human FcγRIIb receptor protein (R&D Systems) (human, UniProt P31994 46-217)
T1 construct: Bought protein injected over captured antibody in Biacore; also called CD32b
T1 sequence (looked up): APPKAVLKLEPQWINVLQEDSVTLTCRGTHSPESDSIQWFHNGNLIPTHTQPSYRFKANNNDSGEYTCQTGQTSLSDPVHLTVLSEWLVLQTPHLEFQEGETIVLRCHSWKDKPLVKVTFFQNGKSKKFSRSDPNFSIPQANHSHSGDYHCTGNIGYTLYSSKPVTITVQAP

T2: human FcγRIIa (131R), His- and GST-tagged (human, UniProt P12318 34-217)
T2 construct: Expressed in HEK293T cells, purified by nickel chromatography; also called R131 FcγRIIa; not shown: 6xHis and GST tags of the pTT5 vector
T2 sequence (looked up): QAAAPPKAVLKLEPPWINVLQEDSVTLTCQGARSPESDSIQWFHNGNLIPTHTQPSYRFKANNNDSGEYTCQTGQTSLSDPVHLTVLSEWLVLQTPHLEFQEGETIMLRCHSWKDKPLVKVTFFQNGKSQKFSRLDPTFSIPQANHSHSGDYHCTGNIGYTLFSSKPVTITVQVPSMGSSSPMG

T3: human FcγRIIa (131H), His- and GST-tagged (human, UniProt P12318 34-217)
T3 construct: also called H131 FcγRIIa; HIIa; not shown: 6xHis and GST tags of the pTT5 vector
T3 sequence (looked up): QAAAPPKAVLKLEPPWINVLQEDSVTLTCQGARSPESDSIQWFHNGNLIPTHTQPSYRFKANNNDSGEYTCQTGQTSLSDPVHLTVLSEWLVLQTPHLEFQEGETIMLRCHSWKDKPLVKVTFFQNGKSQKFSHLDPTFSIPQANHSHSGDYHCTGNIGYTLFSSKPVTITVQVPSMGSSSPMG

T4: human FcγRIIb on cells (transfected HEK293T cells; primary human B cells) (human, UniProt P31994 43-310)
T4 construct: whole, on cells; also called CD32b
T4 sequence (looked up): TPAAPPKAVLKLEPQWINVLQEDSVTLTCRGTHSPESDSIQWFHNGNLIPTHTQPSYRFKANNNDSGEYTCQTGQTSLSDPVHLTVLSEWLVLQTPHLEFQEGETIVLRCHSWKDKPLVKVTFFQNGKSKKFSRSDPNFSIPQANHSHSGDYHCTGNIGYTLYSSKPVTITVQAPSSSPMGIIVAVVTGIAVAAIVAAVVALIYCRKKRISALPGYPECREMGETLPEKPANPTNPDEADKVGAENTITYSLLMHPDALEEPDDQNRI

T5: mFcγRIIb (Mus musculus, UniProt P08101)
T5 construct: extracellular region, C-terminal His- and GST-tag; also called mouse FcγRII
T5 sequence (receptor extracellular region, looked up): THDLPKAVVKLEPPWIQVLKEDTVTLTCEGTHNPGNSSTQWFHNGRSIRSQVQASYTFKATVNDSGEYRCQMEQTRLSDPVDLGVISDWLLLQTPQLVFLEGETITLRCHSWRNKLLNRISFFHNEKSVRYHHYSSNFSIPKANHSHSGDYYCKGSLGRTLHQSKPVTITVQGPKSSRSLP

T6: mFcγRIV
T6 construct: also called mouse FcγRIV; not shown: C-terminal His and GST tags (named only on our card)
T6 chain: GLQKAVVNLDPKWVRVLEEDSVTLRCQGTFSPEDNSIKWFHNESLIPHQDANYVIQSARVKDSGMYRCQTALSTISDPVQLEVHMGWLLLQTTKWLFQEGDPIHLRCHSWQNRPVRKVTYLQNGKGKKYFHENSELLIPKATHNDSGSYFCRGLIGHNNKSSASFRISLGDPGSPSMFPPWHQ

T7: cynoFcγRIIb (Macaca fascicularis, UniProt A0A140HDP4)
T7 construct: extracellular region, C-terminal His- and GST-tag; also called cynomolgus monkey FcγRIIb
T7 sequence (receptor extracellular region): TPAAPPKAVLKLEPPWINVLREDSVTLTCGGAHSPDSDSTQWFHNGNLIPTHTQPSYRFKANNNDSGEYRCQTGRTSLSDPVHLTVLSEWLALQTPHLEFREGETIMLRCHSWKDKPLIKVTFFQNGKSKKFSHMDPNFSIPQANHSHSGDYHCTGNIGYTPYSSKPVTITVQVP


How the values were obtained:
[1] = molecular target: T1, human FcγRIIb receptor protein (R&D …); assay: SPR
[2] = molecular target: T8, human FcγRI receptor protein (R&D Systems) (human, UniProt P12314 16-288); assay: SPR
T8 construct: also called soluble FcγRI; solFcγRI

[3] = molecular target: T2, human FcγRIIa (131R), His- and …; assay: SPR
[4] = molecular target: T3, human FcγRIIa (131H), His- and …; assay: SPR
[5] = molecular target: T9, human FcγRIIIa (158V), His- and GST-tagged (human, UniProt P08637 17-208); assay: SPR
T9 construct: also called V158 FcγRIIIa; VIIIa; not shown: 6xHis and GST tags of the pTT5 vector

[6] = molecular target: T10, human FcγRIIIa (158F), His- and GST-tagged (human, UniProt P08637 17-208); assay: SPR
T10 construct: also called F158 FcγRIIIa; not shown: 6xHis and GST tags of the pTT5 vector

[7] = molecular target: T1, human FcγRIIb receptor protein (R&D …); assay: Biacore SPR, antibody captured on protein A/G chip, FcγR injected, 1:1 Langmuir fit
Procedure: (§1) Variants were screened for receptor affinity using Biacore™ technology, also referred to as Biacore herein, a surface plasmon resonance (SPR) based technology for studying biomolecular interactions in real time. SPR measurements were performed using a Biacore 3000 instrument (Biacore, Piscataway, N.J.). A protein A/G (Pierce Biotechnology) CM5 biosensor chip (Biacore) was generated using a standard primary amine coupling protocol. All measurements were performed using HBS-EP buffer (10 mM HEPES pH 7.4, 0.15 M NaCl, 3 mM EDTA, 0.005% vol/vol surfactant P20, Biacore). Antibodies at 20 nM or 50 nM in HBS-EP buffer were immobilized on the protein A/G surface and FcγRs were injected. After each cycle, the surface was regenerated by injecting glycine buffer (10 mM, pH 1.5). Data were processed by zeroing time and response before the injection of FcγR and by subtracting appropriate nonspecific signals (response of reference channel and injection of running buffer). Kinetic analyses were performed by global fitting of binding data with a 1:1 Langmuir binding model using BIAevaluation software (Biacore).

[8] = molecular target: T4, human FcγRIIb on cells (transfected …); assay: flow cytometry on FcγRIIb-transfected 293T cells [top left panel]
Procedure: (§2) In order to validate the Biacore data and evaluate receptor binding of the variants on the cell surface, binding of select antibodies to cells expressing FcγRIIb was measured. […] HEK293T cells in DMEM with 10% FBS were transfected with human FcγRIIb cDNA in pCMV6 expression vector (Origene Technologies, Rockville, Md.), cultured for 3 days, harvested, washed twice in PBS, resuspended in PBS with 0.1% BSA (PBS/BSA), and aliquoted at 2×10^5 cells per well into 96-well microtiter plates. Fc variant antibodies were serially diluted in PBS/BSA then added to the cells and incubated with mixing for 1 h at room temperature. After extensive washing with PBS/BSA, phycoerythrin (PE)-labeled anti-human-Fab-specific goat F(ab′)2 fragment was added for detection. Cells were incubated for 30 min at room temperature, washed, and resuspended in PBS/BSA. Binding was evaluated using a FACSCanto II flow cytometer (BD Biosciences, San Jose, Calif.), and the mean fluorescence intensity (MFI) was plotted as a function of antibody concentration using Graph Pad Prism software (GraphPad Software, San Diego, Calif.) from which half-maximal binding (EC50) values were determined by sigmoidal dose response modeling.

[9] = molecular target: T4, human FcγRIIb on cells (transfected …); assay: flow cytometry on FcγRIIb-transfected 293T cells [top right panel]
Procedure: as §2

[10] = molecular target: T4, human FcγRIIb on cells (transfected …); assay: flow cytometry on FcγRIIb-transfected 293T cells [middle left panel]
Procedure: as §2

[11] = molecular target: T4, human FcγRIIb on cells (transfected …); assay: flow cytometry on FcγRIIb-transfected 293T cells [middle right panel]
Procedure: as §2

[12] = molecular target: T4, human FcγRIIb on cells (transfected …); assay: flow cytometry on FcγRIIb-transfected 293T cells [bottom left panel]
Procedure: as §2

mFcγRIIb = molecular target: T5, mFcγRIIb; assay: SPR
mFcγRIV = molecular target: T6, mFcγRIV; assay: SPR
cynoFcγRIIb = molecular target: T7, cynoFcγRIIb; assay: SPR
cynoFcγRIIIa = molecular target: T11, cynoFcγRIIIa (Macaca fascicularis, UniProt Q8SPW2); assay: SPR, Kd
T11 construct: extracellular region, C-terminal His- and GST-tag; also called cynomolgus monkey FcγRIIIa
Procedure: as §1
Variant antibodies were tested for their affinity to mouse or cynologous monkey FcγRs using Biacore SPR as described above. Specifically, antibodies were first immobilized on a protein A/G chip to high density, and then followed by injections of the extracellular domain of the mouse or cynologous monkey FcγR of interest. Both association and dissociation phases were tracked in real time using the Biacore technology.

[13] = molecular target: T4, human FcγRIIb on cells (transfected …); assay: flow cytometry on HEK293T cells transfected with human FcγRIIb, PE anti-human Fab detection
Procedure: as §2
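Wherever Fold vs WT IgG1 (off-rate) is given: fold improvement over WT IgG1 so higher means slower dissociation than WT.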

T8 sequence (P12314 16-288 limits assumed): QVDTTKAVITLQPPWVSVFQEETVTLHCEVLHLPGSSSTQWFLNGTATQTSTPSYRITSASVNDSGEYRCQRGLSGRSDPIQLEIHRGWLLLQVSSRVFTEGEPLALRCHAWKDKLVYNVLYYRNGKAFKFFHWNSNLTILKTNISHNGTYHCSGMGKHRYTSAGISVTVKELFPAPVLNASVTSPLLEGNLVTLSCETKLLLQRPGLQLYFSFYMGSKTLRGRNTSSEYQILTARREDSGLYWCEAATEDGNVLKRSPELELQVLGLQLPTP
T9 sequence (P08637 17-208 F176V): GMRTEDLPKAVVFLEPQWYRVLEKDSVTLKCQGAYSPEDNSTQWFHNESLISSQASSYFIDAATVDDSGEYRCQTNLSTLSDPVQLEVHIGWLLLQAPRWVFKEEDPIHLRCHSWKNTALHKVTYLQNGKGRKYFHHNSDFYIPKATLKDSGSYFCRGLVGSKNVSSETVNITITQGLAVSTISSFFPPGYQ
T10 sequence (P08637 17-208): as the sequence (P08637 17-208 F176V) above, with V160F counted along it
T11 sequence (Q8SPW2 17-208): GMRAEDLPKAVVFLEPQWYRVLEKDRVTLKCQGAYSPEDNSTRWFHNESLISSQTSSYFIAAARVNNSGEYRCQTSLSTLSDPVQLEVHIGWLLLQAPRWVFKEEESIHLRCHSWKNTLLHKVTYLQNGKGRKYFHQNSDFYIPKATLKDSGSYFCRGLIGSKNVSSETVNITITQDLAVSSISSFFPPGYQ

Row | Fold vs WT IgG1 [1] [fold] | Fold vs WT IgG1 [2] [fold] | Kd [2] [nM] | Fold vs WT IgG1 [3] [fold] | Kd [3] [nM] | Fold vs WT IgG1 [4] [fold] | Kd [4] [nM] | Fold vs WT IgG1 [5] [fold] | Kd [5] [nM] | Kd [1] [nM] | Binder | further results
1 |  |  | 0.0374 |  | 68.6 |  | 163 |  |  | 101 | S239D/I332E (antibody, human IgG1, kappa, HuAM4G7 anti-CD19 IgG1 (m1) with these Fc substitutions, EU index; copies: 2 + 2) heavy: not shown light: DIVMTQSPATLSLSPGERATLSCRSSKSLQNVNGNTYLYWFQQKPGQSPQLLIYRMSNLNSGVPDRFSGSGSGTEFTLTISSLEPEDFAVYYCMQHLEYPITFGAGTKLEIKRTVAAPSVFIFPPSDEQLKSGTASVVCLLNNFYPREAKVQWKVDNALQSGNSQESVTEQDSKDSTYSLSSTLTLSKADYEKHKVYACEVTHQGLSSPVTKSFNRGEC | Kd [6]: 28.2 nM; EC50 (read off the curve) [8]: ~0.02 mg/L; EC50 (read off the curve) [9]: ~0.02 mg/L; EC50 (read off the curve) [10]: ~0.03 mg/L; EC50 (read off the curve) [11]: ~0.03 mg/L
2 | 37.2 | 0.00347 | 95 | 37.5 | 22.9 | 0.941 | 687 |  |  | 39.4 | anti-CD19 antibody HuAM4G7 IgG1 L235Y/S267E (antibody, Positions in EU numbering; copies: 2 + 2) heavy: not shown light: DIVMTQSPATLSLSPGERATLSCRSSKSLQNVNGNTYLYWFQQKPGQSPQLLIYRMSNLNSGVPDRFSGSGSGTEFTLTISSLEPEDFAVYYCMQHLEYPITFGAGTKLEIKRTVAAPSVFIFPPSDEQLKSGTASVVCLLNNFYPREAKVQWKVDNALQSGNSQESVTEQDSKDSTYSLSSTLTLSKADYEKHKVYACEVTHQGLSSPVTKSFNRGEC | binding result [5]: no binding; EC50 (read off the curve) [12]: ~0.006 mg/L

Second part, the binder before the results:

Row | Binder | Fold vs WT IgG1 [1] [fold] | Fold vs WT IgG1 [2] [fold] | Kd [2] [nM] | Fold vs WT IgG1 [3] [fold] | Kd [3] [nM] | Fold vs WT IgG1 [4] [fold] | Kd [4] [nM] | Fold vs WT IgG1 [5] [fold] | Kd [5] [nM] | Kd [1] [nM] | further results
3 | anti-CD19 antibody HuAM4G7, WT (native) IgG1 (antibody, also called WT IgG1; anti-CD19-IgG1; copies: 2 + 2) heavy: not shown light: DIVMTQSPATLSLSPGERATLSCRSSKSLQNVNGNTYLYWFQQKPGQSPQLLIYRMSNLNSGVPDRFSGSGSGTEFTLTISSLEPEDFAVYYCMQHLEYPITFGAGTKLEIKRTVAAPSVFIFPPSDEQLKSGTASVVCLLNNFYPREAKVQWKVDNALQSGNSQESVTEQDSKDSTYSLSSTLTLSKADYEKHKVYACEVTHQGLSSPVTKSFNRGEC | 1 | 1 | 0.329 | 1 | 859 | 1 | 646 | 1 | 191 |  | Fold vs WT IgG1 [6]: 1 fold; Kd [7]: 1470 nM
4 | anti-CD19 antibody HuAM4G7 IgG1 S267E/L328F (antibody, Positions in EU numbering; also called anti-CD19-S267E/L328F; α-CD19-S267E/L328F; copies: 2 + 2) heavy: not shown light: DIVMTQSPATLSLSPGERATLSCRSSKSLQNVNGNTYLYWFQQKPGQSPQLLIYRMSNLNSGVPDRFSGSGSGTEFTLTISSLEPEDFAVYYCMQHLEYPITFGAGTKLEIKRTVAAPSVFIFPPSDEQLKSGTASVVCLLNNFYPREAKVQWKVDNALQSGNSQESVTEQDSKDSTYSLSSTLTLSKADYEKHKVYACEVTHQGLSSPVTKSFNRGEC | 242 | 1.5 | 0.22 | 275 | 3.12 | 0.7 | 923 | 0.038 | 5040 | 6.06 | Fold vs WT IgG1 (Kd) (mFcγRIIb): 1.06 fold; Fold vs WT IgG1 (off-rate) (mFcγRIIb): 4.89 fold; Fold vs WT IgG1 (Kd) (mFcγRIV): 0.02 fold; Fold vs WT IgG1 (off-rate) (mFcγRIV): 0.198 fold; Fold vs WT IgG1 (Kd) (cynoFcγRIIb): 0.881 fold; Fold vs WT IgG1 (off-rate) (cynoFcγRIIb): 1.26 fold; binding result (cynoFcγRIIIa): no binding; fold EC50 relative to WT IgG1 [13]: ~320 fold
